Measured values reported in IntAct's records for PubMed 20051244.

B1: Octaprenyl diphosphate synthase (Escherichia coli (strain K12)), P0AD57 (parent)
chain: MNLEKINELTAQDMAGVNAAILEQLNSDVQLINQLGYYIVSGGGKRIRPMIAVLAARAVGYEGNAHVTIAALIEFIHTATLLHDDVVDESDMRRGKATANAAFGNAASVLVGDFIYTRAFQMMTSLGSLKVLEVMSEAVNVIAEGEVLQLMNVNDPDITEENYMRVIYSKTARLFEAAAQCSGILAGCTPEEEKGLQDYGRYLGTAFQLIDDLLDYNADGEQLGKNVGDDLNEGKPTLPLLHAMHHGTPEQAQMIRTAIEQGNGRHLLEPVLEAMNACGSLEWTRQRAEEEADKAIAALQVLPDTPWREALIGLAHIAVQRDR
partner: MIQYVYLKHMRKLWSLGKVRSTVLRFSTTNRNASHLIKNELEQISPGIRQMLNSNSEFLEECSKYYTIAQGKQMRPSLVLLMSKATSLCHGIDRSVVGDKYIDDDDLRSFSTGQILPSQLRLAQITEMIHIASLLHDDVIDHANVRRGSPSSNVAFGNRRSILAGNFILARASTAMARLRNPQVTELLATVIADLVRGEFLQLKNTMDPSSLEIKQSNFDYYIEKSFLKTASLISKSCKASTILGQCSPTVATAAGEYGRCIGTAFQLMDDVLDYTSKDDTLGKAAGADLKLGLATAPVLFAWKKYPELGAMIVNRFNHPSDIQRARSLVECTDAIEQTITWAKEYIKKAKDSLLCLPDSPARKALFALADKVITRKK
B2: Octaprenyl diphosphate synthase (Escherichia coli (strain K12)), P0AD57 (parent)
chain: B1 chain
partner: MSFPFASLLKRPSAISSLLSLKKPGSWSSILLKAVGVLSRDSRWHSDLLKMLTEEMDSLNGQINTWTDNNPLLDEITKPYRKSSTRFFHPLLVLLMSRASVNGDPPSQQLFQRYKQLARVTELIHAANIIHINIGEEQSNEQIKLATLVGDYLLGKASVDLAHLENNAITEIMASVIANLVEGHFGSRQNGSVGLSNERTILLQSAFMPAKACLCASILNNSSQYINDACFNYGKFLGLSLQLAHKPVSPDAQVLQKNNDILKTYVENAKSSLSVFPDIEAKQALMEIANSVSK

Variants of: B1
Details: with dps1_schpo dps1, O43091
With R321A the “effect of a mutation on the interaction” value was “increasing interaction”.

Variants of: B2
Details: with dlp1_schpo dlp1, O13851
In the case of R321A, the “effect of a mutation on the interaction” value is reported as “decreasing interaction”.
